Laboratory results as given in patent publication EP4480965A1, “TRANSFERRIN RECEPTOR-BINDING MOLECULES, CONJUGATES THEREOF AND THEIR USES TO PREVENT OR TREAT CNS DISEASES” (Vect-Horus, priority 2023, dated 2024).

Test system: murine SOD1 mRNA
Experiment: CNS knock-down of SOD1 mRNA after systemic (SC or IV) administration (RT-qPCR)
Format: in vivo, C57Bl/6 mice
Conditions: SC QDx4 at 15 mg/kg (siRNA molar equivalent), one week after last dose
Method: VHH-siSOD1m-5'VP conjugates or heterodimeric VHH-hFc-siSOD1m-5'VP conjugates were generated and compared for their potential to trigger BBB-crossing and functional delivery in CNS tissues following systemic administration. Wild-type C57Bl/6 mice (4-8 per group) were administered with either four daily SC doses (QDx4) of unconjugated siSOD1m-5'VP or the C5-siSOD1m-5'VP conjugate at 15 mg/kg (siRNA molar equivalent), or three IV doses of the C5-hFc-siSOD1m-5'VP conjugate every two days (Q2Dx3) at 1.5 mg/kg (siRNA molar equivalent), compared to PBS injected mice. […] RNA samples were analyzed and dosed using a Fragment Analyzer RNA kit in a Fragment Analyzer system (Agilent). Relative RNA expression levels were quantified by RT-qPCR using the TaqMan™ Fast Universal PCR Master Mix (2X) no AmpErase™ LTNG kit (Applied Biosystems) and commercially available TaqMan™ probes for the target murine SOD1 and reference RpL13 and PUM1 genes (Applied Biosystems). Expression data were analyzed using the […]Cq method normalized to the expression of the reference RpL13 gene, for brain regions, or RpL13 and PUM1 genes for total brain, spinal cord, liver, kidney (multiplex qPCR), based on raw quantification cycle (Cq) values (Bustin et al.). The results are expressed as means ± standard error of the mean (SEM) and are presented as mRNA levels relative to the control animals injected with PBS. […]

B1: C5-siSOD1m-5'VP: TfR-binding VHH-siRNA conjugate wherein VHH is C5 (conjugate)
VHH: EVQLVESGGGVVQPGGSLKLSCVASGTDFSINFIRWYRQAPGKQREFVAGFTATGNTNYADSMKGRFTISRDNTKNAVYLQIDSLKPEDTAVYYCYMLDKWGQGTQVTVSSAAAEQKLISEEDLNGAAHHHHHHGS
  SOD1 mRNA KD in total brain and spinal cord: 30-40%
